In US20180321243A1 (UNIVERSITY OF SASKATCHEWAN, published 2018):

T1: recombinant human ADAM10 (Biomatik, #RPU140010) (human, UniProt O14672 214-672, limits assumed)
T1 construct: The source and catalogue number are printed for the phage display selections only; also called purified human ADAM10; Disintegrin and metalloproteinase domain-containing protein 10
T1 sequence (looked up): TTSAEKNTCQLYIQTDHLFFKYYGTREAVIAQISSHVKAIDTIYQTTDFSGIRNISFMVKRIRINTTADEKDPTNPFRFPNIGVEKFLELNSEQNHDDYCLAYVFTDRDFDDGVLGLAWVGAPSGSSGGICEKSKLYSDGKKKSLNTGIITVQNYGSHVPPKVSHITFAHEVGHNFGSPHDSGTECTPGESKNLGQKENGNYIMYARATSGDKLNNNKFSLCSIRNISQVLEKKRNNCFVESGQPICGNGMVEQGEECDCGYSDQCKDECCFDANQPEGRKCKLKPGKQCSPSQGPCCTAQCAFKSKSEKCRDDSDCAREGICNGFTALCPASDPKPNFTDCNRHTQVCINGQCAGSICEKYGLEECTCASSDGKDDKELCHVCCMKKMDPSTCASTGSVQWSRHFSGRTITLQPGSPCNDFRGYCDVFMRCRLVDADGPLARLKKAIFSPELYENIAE


How the values were obtained:
[1] = target: T1, recombinant human ADAM10 (Biomatik, …); experiment: phage ELISA, ADAM10 signal over BSA signal
Description: (§1) A phage-based ELISA was performed as a semi-quantitative approach to initially validate scFv binding to ADAM10. ADAM10 was adsorbed to ELISA plates and purified phage displaying each of the scFv clones was tested for a binding signal compared to a negative control bovine serum albumin (BSA) protein.
(§2) Similar to the phage display screening methodology, ADAM10 was adsorbed to NUNC MaxiSorp Immunoplates and subsequently incubated with ˜10¹² purified phage displaying an scFv clone. An anti-phage-horseradish peroxidase secondary antibody was then used to generate binding signals for each clone in duplicate, which was measured by colour development at an optical density of 450 nm (O.D. 450 nm) using a tetramethylbenzidine substrate (ThermoScientific, #34028).

[2] = target: T2, bovine serum albumin (BSA) (bovine, UniProt P02769 25-607); experiment: phage ELISA, scFv displayed on M13 phage, BSA negative control, duplicate 1
T2 construct: Negative control / background protein in the phage ELISA
Description: as §1, §2

[3] = target: T2, bovine serum albumin (BSA); experiment: phage ELISA, scFv displayed on M13 phage, BSA negative control, duplicate 2
Description: as §1, §2

[4] = target: T1, recombinant human ADAM10 (Biomatik, …); experiment: BLI (Octet RED384), unlabeled scFv coupled to AR2G biosensors, ADAM10 at 500 and 166 nM, global fit
Description: (§3) BLI sensorgrams for scFv-B2 (A), scFv-B7 (B), and scFv-B9 (C) show real-time binding curves in nanometers of optical thickness versus time (sec). […] A global best fit (solid red line) for each curve was calculated by ForteBio Data Anaylsis 7.1 software and used to determine the kinetic parameters in Table 5.
(§4) Biolayer interferometry was performed with an Octet RED384 instrument (ForteBio). The initial kinetics with unlabeled scFv was performed through coupling to AR2G biosensors per manufacturer instructions (ForteBio). These biosensors were then dipped into ADAM10 (500 nM and 166 nM) to generate the association curves, after which the sensors were moved into buffer alone to generate the corresponding dissociation curves. ForteBio Data Analysis 7.0 software was used for global curve fitting to generate the kinetic data. The kinetic analysis for biotin-conjugated scFvs was performed similarly, except that streptavidin biosensors (ForteBio) were used for immobilization, along with three ADAM10 concentrations (1000 nM, 500 nM, 166 nM). An equal loading (i.e. optical thickness) of the biosensors was performed in both kinetic experiments.

[5] = target: T1, recombinant human ADAM10 (Biomatik, …); experiment: BLI (Octet RED384), biotin-labeled scFv on streptavidin biosensors, ADAM10 at 1000, 500 and 166 nM, global fit
Description: as §3, with “biotin-scFv-B2” for “scFv-B2”, “biotin-scFv-B7” for “scFv-B7”, “biotin-scFv-B9” for “scFv-B9”, “6.” for “5.”
as §4

[6] = target: T1, recombinant human ADAM10 (Biomatik, …); experiment: phage ELISA, ADAM10 signal over BSA signal; underrepresentation because OD was above the detectable limit
Description: as §1, §2

T2 sequence (P02769 25-607 limits assumed): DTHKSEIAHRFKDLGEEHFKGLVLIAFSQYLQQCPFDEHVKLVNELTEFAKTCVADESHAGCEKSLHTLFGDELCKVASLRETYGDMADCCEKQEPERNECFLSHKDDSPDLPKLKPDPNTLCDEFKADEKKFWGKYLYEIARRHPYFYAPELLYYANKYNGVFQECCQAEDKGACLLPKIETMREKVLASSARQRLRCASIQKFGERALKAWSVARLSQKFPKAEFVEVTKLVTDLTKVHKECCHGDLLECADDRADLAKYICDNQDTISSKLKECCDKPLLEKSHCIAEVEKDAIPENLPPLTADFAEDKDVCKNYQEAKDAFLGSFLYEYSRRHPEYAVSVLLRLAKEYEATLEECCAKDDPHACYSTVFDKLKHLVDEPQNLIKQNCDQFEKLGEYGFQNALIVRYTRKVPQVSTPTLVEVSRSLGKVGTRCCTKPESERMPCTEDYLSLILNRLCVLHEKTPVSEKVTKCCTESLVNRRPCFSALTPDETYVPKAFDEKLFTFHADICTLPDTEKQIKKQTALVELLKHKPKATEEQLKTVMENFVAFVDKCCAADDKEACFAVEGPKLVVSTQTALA

Row | Binder | Average fold signal over background [1] [fold] | Absorbance at O.D. 450 nm [2] [OD 450 nm] | Absorbance at O.D. 450 nm [3] [OD 450 nm] | Kd [4] [nM] | koff [4] [s⁻¹] | kon [4] [M⁻¹ s⁻¹] | Kd [5] [nM] | koff [5] [s⁻¹] | kon [5] [M⁻¹ s⁻¹] | Average fold signal over background [6] [fold]
1 | scFv-B7 (scFv, Synthetic human scFv, order VL (IgKV1-16 framework) - (G3S)4 linker - VH (IgHV3-30 framework); Expressed in E. coli BL-21 and purified by protein L chromatography) scFv: SDIQMTQSPSSLSASVGDRVTITCRASQGISNYLAWYQQKPGKAPKLLIYAASSLQSGVPSRFSGSRSGTDFTLTISSLQPEDFATYYCQQVSSWPLTFGQGTKVEIKGGGSGGGSGGGSGGGSEVQLVESGGGLVQPGGSLRLSCAASGFTFSSYGMHWVRQAPGKGLEWVAVISYDGSNKYYADSVKGRFTISRDNSKNTLYLQMNSLRAEDTAVYYCARYPPHGFDYWGQGTLVTVSS | 37 | 0.084 | 0.086 | 7.52 | 9.3e-05 | 12400 |  |  |  | 
2 | biotin-scFv-B7 (scFv, covalently labeled with biotin by N-hydroxysuccinamide amine coupling (EZ-link NHS biotin); labeled residues not stated, held on streptavidin biosensors in the BLI experiments; also called biotin-labeled scFv-B7) scFv: SDIQMTQSPSSLSASVGDRVTITCRASQGISNYLAWYQQKPGKAPKLLIYAASSLQSGVPSRFSGSRSGTDFTLTISSLQPEDFATYYCQQVSSWPLTFGQGTKVEIKGGGSGGGSGGGSGGGSEVQLVESGGGLVQPGGSLRLSCAASGFTFSSYGMHWVRQAPGKGLEWVAVISYDGSNKYYADSVKGRFTISRDNSKNTLYLQMNSLRAEDTAVYYCARYPPHGFDYWGQGTLVTVSS |  |  |  |  |  |  | 21 | 0.00109 | 51900 | 
3 | scFv-B9 (scFv, Synthetic human scFv, order VL (IgKV1-16 framework) - (G3S)4 linker - VH (IgHV3-30 framework); Expressed in E. coli BL-21 and purified by protein L chromatography) scFv: SDIQMTQSPSSLSASVGDRVTITCRASQGISNYLAWYQQKPGKAPKLLIYAASSLQSGVPSRFSGSRSGTDFTLTISSLQPEDFATYYCQQLYHPPLTFGQGTKVEIKGGGSGGGSGGGSGGGSEVQLVESGGGLVQPGGSLRLSCAASGFTFSSYGMHWVRQAPGKGLEWVAVISYDGSNKYYADSVKGRFTISRDNSKNTLYLQMNSLRAEDTAVYYCARYSPYHYSHSVSYYYYGFDVWGQGTLVTVSS | 42.1 | 0.075 | 0.082 | 9.32 | 0.000115 | 12400 |  |  |  | 
4 | biotin-scFv-B9 (scFv, covalently labeled with biotin by N-hydroxysuccinamide amine coupling (EZ-link NHS biotin); labeled residues not stated, held on streptavidin biosensors in the BLI experiments; also called biotin-labeled scFv-B9) scFv: SDIQMTQSPSSLSASVGDRVTITCRASQGISNYLAWYQQKPGKAPKLLIYAASSLQSGVPSRFSGSRSGTDFTLTISSLQPEDFATYYCQQLYHPPLTFGQGTKVEIKGGGSGGGSGGGSGGGSEVQLVESGGGLVQPGGSLRLSCAASGFTFSSYGMHWVRQAPGKGLEWVAVISYDGSNKYYADSVKGRFTISRDNSKNTLYLQMNSLRAEDTAVYYCARYSPYHYSHSVSYYYYGFDVWGQGTLVTVSS |  |  |  |  |  |  | 23.1 | 0.00117 | 50800 | 
5 | scFv-B2 (scFv, Synthetic human scFv, order VL (IgKV1-16 framework) - (G3S)4 linker - VH (IgHV3-30 framework); Expressed in E. coli BL-21 and purified by protein L chromatography) scFv: SDIQMTQSPSSLSASVGDRVTITCRASQGISNYLAWYQQKPGKAPKLLIYAASSLQSGVPSRFSGSRSGTDFTLTISSLQPEDFATYYCQQSYYLPLTFGQGTKVEIKGGGSGGGSGGGSGGGSEVQLVESGGGLVQPGGSLRLSCAASGFTFSSYGMHWVRQAPGKGLEWVAVISYDGSNKYYADSVKGRFTISRDNSKNTLYLQMNSLRAEDTAVYYCARWPAHFSHSHSSYYYYGFDVWGQGTLVTVSS |  | 0.096 | 0.079 | 14.6 | 0.000187 | 12800 |  |  |  | > 45.7
6 | biotin-scFv-B2 (scFv, covalently labeled with biotin by N-hydroxysuccinamide amine coupling (EZ-link NHS biotin); labeled residues not stated, held on streptavidin biosensors in the BLI experiments; also called biotin-labeled scFv-B2) scFv: SDIQMTQSPSSLSASVGDRVTITCRASQGISNYLAWYQQKPGKAPKLLIYAASSLQSGVPSRFSGSRSGTDFTLTISSLQPEDFATYYCQQSYYLPLTFGQGTKVEIKGGGSGGGSGGGSGGGSEVQLVESGGGLVQPGGSLRLSCAASGFTFSSYGMHWVRQAPGKGLEWVAVISYDGSNKYYADSVKGRFTISRDNSKNTLYLQMNSLRAEDTAVYYCARWPAHFSHSHSSYYYYGFDVWGQGTLVTVSS |  |  |  |  |  |  | 22 | 0.00103 | 46800 | 
